According to patent US12076374B1, “Anti-microbial and anti-inflammatory compositions and methods for treating enteric diseases in animals” (Vets Plus, Inc., priority 2019, dated 2024):

Legend:
Type in all cases: in vivo
[1] = test system: Eimeria tenella; experiment: E. tenella infection (coccidiosis) in broiler chickens, growth performance and oocysts
[2] = test system: gut microbiome; experiment: Fecal 16S rRNA microbiome analysis of newly weaned piglets with diarrhea
Excerpt: The microbiome of newly weaned piglets with diarrhea was examined when treated with components of the invention. Fecal samples of N=3 control (C) newly weaned piglets without diarrhea (D) and for N=6 newly weaned piglets that did have diarrhea were examined. 3 of these piglets with diarrhea were randomly selected and treated (T3) with 2.5 grams/piglet/day with ovotransferrin by mixing the ovotransferrin into dry feed for 5 consecutive days. Fecal samples were taken from the Diarrhea pigs, the Treated piglets and Control piglets after 5 days trial.
Fecal samples then had DNA was extracted using the PowerSoil DNA extraction kit (QIAGEN). Extracted DNA was then sequenced where the V4 variable region of the bacterial 16S rRNA gene was amplified (Primers 515F and 806R) and libraries constructed using a dual index approach1. 16SrRNA libraries were sequenced on a MiSeq V3 instrument (Illumina), targeting 2×300 PE reads. Bioinformatics occurred by processing of amplicons that was based on protocols that rely on several open-source software (FastQC2, cutadapt3, bbmap4 and the DADA25 plugin within QIIME26) to remove adaptors and primer sequences, merge PE reads, filter out low quality reads and generate counts of unique Amplicon Sequence Variants (ASVs) or unique taxonomic groups that represent the abundance of species and/or strains in each sample. […]

[3] = test system: PEDV; experiment: PEDV newborn piglets, dose response of ovotransferrin drench with or without ORS; details: for % Survival: 100 ml drench twice daily, after 5 days
[4] = 28-d feeding trial in weaned pigs with diarrhea, fecal score and growth performance
Procedure: Weaning can be a stressful time for performance animals that are transitioning to new food and newly encountering enteric pathogens. These factors can result in diarrhea to varying degrees. The objective of this study was to evaluate the effect of supplementing dietary ovotransferrin of the invention to pigs that had slight diarrhea within a week upon weaning. Growth performance and fecal score were measured. […] Pigs with diarrhea were housed in the nursery pens with 3 pigs per pen and allowed free access to the diet and water ad-libitum for the entire experimental period. Then, they were treated with a solution mixed with electrolytes and ovotransferrin by drenching for 3 days. Ovotransferrin was produced as described in example 1. The pigs were fed test diets containing 0, 0.5, and 1.0% ovotransferrin of the invention. Body weight were recorded at day 0 (study initiation), day 7, 14, 21, and 28 postweaning. Average daily gain (ADG), average daily feed intake (ADFI) and gain:feed (G:F) ratio were calculated weekly from day 7-28 postweaning. Corn-soybean meal-based diets were used for 28 days with 2 phases (Phase 1: day 0-14 postweaning and Phase 2: day 15-28 postweaning). Ovotransferrin was added to the diets by replacing corn starch proportionally. Fecal score was recorded daily through day 14. Body weight and feed consumption were recorded weekly for the diarrhea pigs.

[5] = 0.5% ovotransferrin in diet, d 7-14
[6] = 0.5% ovotransferrin in diet, d 7-28
[7] = 0.5% ovotransferrin in diet, d 14-21
[8] = 0.5% ovotransferrin in diet, d 21-28
[9] = 1% ovotransferrin in diet, d 7-14
[10] = 1% ovotransferrin in diet, d 7-28
[11] = 1% ovotransferrin in diet, d 14-21
[12] = 1% ovotransferrin in diet, d 21-28

B1: ovotransferrin (protein, UniProt P02789 20-705, looked up)
Ovotransferrin: APPKSVIRWCTISSPEEKKCNNLRDLTQQERISLTCVQKATYLDCIKAIANNEADAISLDGGQAFEAGLAPYKLKPIAAEVYEHTEGSTTSYYAVAVVKKGTEFTVNDLQGKTSCHTGLGRSAGWNIPIGTLLHRGAIEWEGIESGSVEQAVAKFFSASCVPGATIEQKLCRQCKGDPKTKCARNAPYSGYSGAFHCLKDGKGDVAFVKHTTVNENAPDQKDEYELLCLDGSRQPVDNYKTCNWARVAAHAVVARDDNKVEDIWSFLSKAQSDFGVDTKSDFHLFGPPGKKDPVLKDLLFKDSAIMLKRVPSLMDSQLYLGFEYYSAIQSMRKDQLTPSPRENRIQWCAVGKDEKSKCDRWSVVSNGDVECTVVDETKDCIIKIMKGEADAVALDGGLVYTAGVCGLVPVMAERYDDESQCSKTDERPASYFAVAVARKDSNVNWNNLKGKKSCHTAVGRTAGWVIPMGLIHNRTGTCNFDEYFSEGCAPGSPPNSRLCQLCQGSGGIPPEKCVASSHEKYFGYTGALRCLVEKGDVAFIQHSTVEENTGGKNKADWAKNLQMDDFELLCTDGRRANVMDYRECNLAEVPTHAVVVRPEKANKIRDLLERQEKRFGVNGSEKSKFMMFESQNKDLLFKDLTKCLFKVREGTTYKEFLGDKFYTVISSLKTCNPSDILQMCSFLEGK
In the case of B1, the “Weight (g) in chickens infected with E. tenella” value (“Weight (g) in chickens infected” for short) ([1]; 0.5% ovotransferrin in feed day 7 through 21, Day 7) is reported as 110 ± 5 g, the “Weight (g) in chickens infected” value ([1]; 0.5% ovotransferrin in feed, Day 14 (day of infection)) is reported as 283 ± 10 g and the “Weight (g) in chickens infected” value ([1]; 0.5% ovotransferrin in feed, Day 21) is reported as 470 ± 15 g. For the same molecule, the “Weight (g) in chickens infected” value ([1]; 1.0% ovotransferrin in feed, Day 7) was 115 ± 6 g, the “Weight (g) in chickens infected” value ([1]; 1.0% ovotransferrin in feed, Day 14) was 293 ± 14 g and the “Weight (g) in chickens infected” value ([1]; 1.0% ovotransferrin in feed, Day 21) was 529 ± 22 g. The “Weight (g) in chickens infected” value ([1]; 2.0% ovotransferrin in feed, Day 7) was 115 ± 6 g, the “Weight (g) in chickens infected” value ([1]; 2.0% ovotransferrin in feed, Day 14) was 293 ± 14 g and the “Weight (g) in chickens infected” value ([1]; 2.0% ovotransferrin in feed, Day 21) was 571 ± 15 g. For the same molecule, the “Oocysts count in fecal sample” value ([1]; as compared with positive infected control, *p<0.01) was “significantly lower”, the Histopathology of cecum ([1]; cecum samples at end of experiment, versus positive infected control) was “normal structures of cecal epithelium” and the E. tenella infection ([1]; given alone in feed) was “inhibited E. tenella infection”. For the same molecule, the Feed conversion rate ([1]; treated groups, E. tenella infected broiler chickens) was “higher”, the “Microbiome diversity (Shannon index, Bray-Curtis PCoA)” value ([2]; 2.5 grams/piglet/day in dry feed for 5 consecutive days, fecal samples) was “brought the microbiome diversity back to levels similar to the control piglets” and the “Abundance of Veilloneaceae, Entreobacteriaceae, Paraprevotellaceae and Treponema” value ([2]; 2.5 grams/piglet/day in dry feed for 5 days, indicator species analysis) was “Reductions to the initial control baselines”. For the same molecule, the “% Survival” value ([3]; 2 grams of ovotransferrin in water) was 40%, the Defecations/day/group ([3]; 2 grams of ovotransferrin, Day 0) was 30 Defecations/day/group and the Defecations/day/group ([3]; 2 grams of ovotransferrin, Day 1) was 18 Defecations/day/group. For the same molecule, the Defecations/day/group ([3]; 2 grams of ovotransferrin, Day 3) was 14 Defecations/day/group, the Defecations/day/group ([3]; 2 grams of ovotransferrin, Day 5) was 12 Defecations/day/group and the “% Survival” value ([3]; 5 grams of ovotransferrin in water) was 60%. The Defecations/day/group ([3]; 5 grams of ovotransferrin, Day 0) was 26 Defecations/day/group, the Defecations/day/group ([3]; 5 grams of ovotransferrin, Day 1) was 18 Defecations/day/group and the Defecations/day/group ([3]; 5 grams of ovotransferrin, Day 3) was 15 Defecations/day/group. It also gave a Defecations/day/group ([3]; 5 grams of ovotransferrin, Day 5) of 12 Defecations/day/group, a Fecal score ([4]; 0.5% ovotransferrin in diet, d 0-7, scale ≤1 normal to 4 liquid, severe diarrhea) of 1.81 and a Fecal score ([4]; 0.5% ovotransferrin in diet, d 0-14 (Phase 1), scale ≤1 normal to 4 severe diarrhea) of 1.80. For the same molecule, the Fecal score ([4]; 0.5% ovotransferrin in diet, d 0-28 (Overall), scale ≤1 normal to 4 severe diarrhea) was 1.68, the “ADFI (average daily feed intake)” value [4, 5] was 581.17 g/day and the “ADG (average daily gain)” value [4, 5] was 356.06 g/day. For the same molecule, the “G:F (gain:feed ratio)” value [4, 5] was 0.613, the Fecal score ([4]; 0.5% ovotransferrin in diet, d 7-14, scale ≤1 normal to 4 severe diarrhea) was 1.79 and the “ADFI (average daily feed intake)” value [4, 6] was 868.33 g/day. For the same molecule, the “ADG (average daily gain)” value [4, 6] was 540.76 g/day, the “G:F (gain:feed ratio)” value [4, 6] was 0.623 and the Body weight ([4]; 0.5% ovotransferrin in diet, d 7 postweaning) was 7.87 kg. The Body weight ([4]; 0.5% ovotransferrin in diet, d 14) was 10.37 kg, the “ADFI (average daily feed intake)” value [4, 7] was 933.98 g/day and the “ADG (average daily gain)” value [4, 7] was 566.02 g/day. The “G:F (gain:feed ratio)” value [4, 7] was 0.606, the Body weight ([4]; 0.5% ovotransferrin in diet, d 21) was 14.33 kg and the “ADFI (average daily feed intake)” value [4, 8] was 1089.83 g/day. For the same molecule, the “ADG (average daily gain)” value [4, 8] was 700.22 g/day, the “G:F (gain:feed ratio)” value [4, 8] was 0.643 and the Body weight ([4]; 0.5% ovotransferrin in diet, d 28) was 19.23 kg. It also gave a Fecal score ([4]; 1% ovotransferrin in diet, d 0-7, scale ≤1 normal to 4 severe diarrhea) of 1.57, a Fecal score ([4]; 1% ovotransferrin in diet, d 0-14 (Phase 1), scale ≤1 normal to 4 severe diarrhea) of 1.61 and a Fecal score ([4]; 1% ovotransferrin in diet, d 0-28 (Overall), scale ≤1 normal to 4 severe diarrhea) of 1.58. For the same molecule, the Body weight ([4]; 1% ovotransferrin in diet, d 7) was 7.61 kg, the “ADFI (average daily feed intake)” value [4, 9] was 654.76 g/day and the “ADG (average daily gain)” value [4, 9] was 496.75 g/day. For the same molecule, the “G:F (gain:feed ratio)” value [4, 9] was 0.759, the Fecal score ([4]; 1% ovotransferrin in diet, d 7-14, scale ≤1 normal to 4 severe diarrhea) was 1.64 and the “ADFI (average daily feed intake)” value [4, 10] was 1043.29 g/day. For the same molecule, the “ADG (average daily gain)” value [4, 10] was 645.02 g/day, the “G:F (gain:feed ratio)” value [4, 10] was 0.618 and the Body weight ([4]; 1% ovotransferrin in diet, d 14) was 11.09 kg. The “ADFI (average daily feed intake)” value [4, 11] was 1084.42 g/day, the “ADG (average daily gain)” value [4, 11] was 584.42 g/day and the “G:F (gain:feed ratio)” value [4, 11] was 0.539. The Body weight ([4]; 1% ovotransferrin in diet, d 21) was 15.18 kg, the “ADFI (average daily feed intake)” value [4, 12] was 1390.69 g/day and the “ADG (average daily gain)” value [4, 12] was 853.90 g/day. For the same molecule, the “G:F (gain:feed ratio)” value [4, 12] was 0.614 and the Body weight ([4]; 1% ovotransferrin in diet, d 28) was 21.16 kg.
